Values quoted from earlier work, collected in paper PMC2751630.

Key:
[1] = target: PKA RI (Homo sapiens) (UniProt P10644)
[2] = target: PKA RIIα (Homo sapiens) (UniProt P13861)
[3] = target: PKA RIIβ (Homo sapiens) (UniProt P31323)
PKA RIIβ (Homo sapiens), sequence (P31323 whole entry): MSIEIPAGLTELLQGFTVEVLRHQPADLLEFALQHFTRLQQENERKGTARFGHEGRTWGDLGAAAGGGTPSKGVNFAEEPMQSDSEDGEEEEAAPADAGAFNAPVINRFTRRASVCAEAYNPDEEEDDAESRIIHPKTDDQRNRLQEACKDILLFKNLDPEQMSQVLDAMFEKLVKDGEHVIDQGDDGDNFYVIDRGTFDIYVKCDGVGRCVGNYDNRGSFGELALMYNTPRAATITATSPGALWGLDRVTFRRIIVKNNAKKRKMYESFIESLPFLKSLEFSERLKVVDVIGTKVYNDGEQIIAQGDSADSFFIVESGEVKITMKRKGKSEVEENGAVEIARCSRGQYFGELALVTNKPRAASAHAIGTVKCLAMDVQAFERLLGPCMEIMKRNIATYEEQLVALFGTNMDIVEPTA

AKAP79, sequence (P24588 whole entry): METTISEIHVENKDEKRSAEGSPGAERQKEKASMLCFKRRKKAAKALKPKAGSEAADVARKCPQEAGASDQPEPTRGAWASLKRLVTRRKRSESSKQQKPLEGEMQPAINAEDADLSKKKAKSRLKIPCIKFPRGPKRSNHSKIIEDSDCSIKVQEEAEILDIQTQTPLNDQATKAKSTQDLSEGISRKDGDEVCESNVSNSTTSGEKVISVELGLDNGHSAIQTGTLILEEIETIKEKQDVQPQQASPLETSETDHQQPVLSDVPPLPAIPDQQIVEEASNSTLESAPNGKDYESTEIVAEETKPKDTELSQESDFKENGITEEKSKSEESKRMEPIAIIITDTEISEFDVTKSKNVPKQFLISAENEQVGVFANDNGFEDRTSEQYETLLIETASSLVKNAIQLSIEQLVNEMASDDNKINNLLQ
PKA RI (Homo sapiens), sequence (P10644 whole entry): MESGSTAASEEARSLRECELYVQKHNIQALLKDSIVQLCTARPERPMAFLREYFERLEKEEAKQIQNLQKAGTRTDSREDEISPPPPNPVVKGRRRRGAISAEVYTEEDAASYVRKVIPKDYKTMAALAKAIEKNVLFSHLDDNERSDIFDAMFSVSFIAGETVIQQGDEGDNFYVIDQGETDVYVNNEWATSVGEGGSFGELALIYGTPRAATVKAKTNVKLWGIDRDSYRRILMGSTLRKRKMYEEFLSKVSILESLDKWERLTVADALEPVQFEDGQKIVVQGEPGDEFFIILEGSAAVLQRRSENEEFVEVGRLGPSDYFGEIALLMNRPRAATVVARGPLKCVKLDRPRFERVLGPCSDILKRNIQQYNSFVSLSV
PKA RIIα (Homo sapiens), sequence (P13861 2-404): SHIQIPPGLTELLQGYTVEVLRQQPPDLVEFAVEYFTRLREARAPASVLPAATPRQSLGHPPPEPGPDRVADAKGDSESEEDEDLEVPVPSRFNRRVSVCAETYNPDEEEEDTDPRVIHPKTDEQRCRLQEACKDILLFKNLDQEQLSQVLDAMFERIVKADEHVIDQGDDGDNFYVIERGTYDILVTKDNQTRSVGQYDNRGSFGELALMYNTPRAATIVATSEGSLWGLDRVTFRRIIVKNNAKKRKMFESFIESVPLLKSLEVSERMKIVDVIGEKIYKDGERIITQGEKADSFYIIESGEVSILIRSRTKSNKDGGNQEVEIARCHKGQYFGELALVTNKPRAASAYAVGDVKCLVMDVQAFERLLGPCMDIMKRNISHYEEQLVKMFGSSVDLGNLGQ

## AKAP79 (from UniProt P24588)
[1]
  Kd: > 1000 nM
[2]
  Kd: 1.5 nM
[3]
  Kd: 4.5 nM
